Test results from patent US20120207760A1.

Legend:
Conditions in all cases: remark: other sources report otherwise
[1] = target: T1, recombinant homotrimeric HA, A/Japan/305/57 H2N2 (Influenza A virus A/Japan/305/57 (H2N2)); test: trimeric HA microarray, transfection set 3
[2] = target: T2, recombinant homotrimeric HA, A/Solomon Islands/3/06 H1N1 (Influenza A virus A/Solomon Islands/3/06 (H1N1)); test: trimeric HA microarray, transfection set 3
[3] = target: T3, recombinant homotrimeric HA, A/South Carolina/1/18 H1N1 (Influenza A virus A/South Carolina/1/18 (H1N1)); test: trimeric HA microarray, transfection set 3
[4] = target: T4, recombinant homotrimeric HA, A/Hong Kong/1073/99 H9N2 (Influenza A virus A/Hong Kong/1073/99 (H9N2)); test: trimeric HA microarray, transfection set 3
[5] = target: T5, recombinant homotrimeric HA, A/Wisconsin/67/05 H3N2 (Influenza A virus A/Wisconsin/67/05 (H3N2)); test: trimeric HA microarray, transfection set 3
[6] = target: recombinant homotrimeric HA, A/duck/Yangzhou/02/05 H8N4 (Influenza A virus A/duck/Yangzhou/02/2005 (H8N4)); test: trimeric HA microarray, transfection set 3
[7] = target: T6, recombinant homotrimeric HA, A/chicken/Vietnam/NCVD-016/08 H5N1 (Influenza A virus A/chicken/Vietnam/NCVD-016/08 (H5N1)); test: trimeric HA microarray, transfection set 3
[8] = target: T7, recombinant homotrimeric HA, A/swine/Ontario/01911-2/99 H4N6 (Influenza A virus A/swine/Ontario/01911-2/99 (H4N6)); test: trimeric HA microarray, transfection set 3
[9] = target: recombinant soluble homotrimeric HA of A/Solomon Islands/3/06 (H1N1) (Influenza A virus A/Solomon Islands/3/06 (H1N1)); test: microarray, BCC supernatant IgG, trimeric HA
[10] = target: recombinant soluble homotrimeric HA of A/duck/Yangzhou/02/05 (H8N4) (Influenza A virus A/duck/Yangzhou/02/2005 (H8N4)); test: microarray, BCC supernatant IgG, trimeric HA
[11] = target: T1, recombinant homotrimeric HA, …; test: trimeric HA microarray, transfection set 5
[12] = target: T2, recombinant homotrimeric HA, A/Solomon …; test: trimeric HA microarray, transfection set 5
[13] = target: T5, recombinant homotrimeric HA, …; test: trimeric HA microarray, transfection set 5
[14] = target: T8, recombinant homotrimeric HA, A/California/4/09 H1N1 (Influenza A virus A/California/4/09 (H1N1)); test: trimeric HA microarray, transfection set 5
[15] = target: recombinant soluble homotrimeric HA of A/California/4/09 (H1N1) (Influenza A virus A/California/4/09 (H1N1)); test: microarray, BCC supernatant IgG, trimeric HA
[16] = target: recombinant soluble homotrimeric HA of A/northern shoveler/California/HKWF115/07 (Influenza A virus A/northern shoveler/California/HKWF115/2007); test: microarray, BCC supernatant IgG, trimeric HA
[17] = target: recombinant soluble homotrimeric HA of A/chicken/Vietnam/NCVD-016/08 (H5N1) (Influenza A virus A/chicken/Vietnam/NCVD-016/08 (H5N1)); test: microarray, BCC supernatant IgG, trimeric HA
[18] = target: T9, recombinant homotrimeric HA, A/northern shoveler/California/HKWF115/07 (Influenza A virus A/northern shoveler/California/HKWF115/2007 (H6N1)); test: trimeric HA microarray, transfection set 3
[19] = target: recombinant homotrimeric HA, A/Hong Kong/2108/03 H9N2 (Influenza A virus A/Hong Kong/2108/03 (H9N2)); test: trimeric HA microarray, transfection set 3
[20] = target: T10, recombinant homotrimeric HA, A/Vietnam/1203/04 H5N1 (Influenza A virus A/Vietnam/1203/04 (H5N1)); test: trimeric HA microarray, transfection set 3
[21] = target: T11, recombinant homotrimeric HA, A/Egypt/3300-NAMRU3/08 H5N1 (Influenza A virus A/Egypt/3300-NAMRU3/08 (H5N1)); test: trimeric HA microarray, transfection set 3
[22] = target: T12, recombinant homotrimeric HA, A/common magpie/Hong Kong/5052/07 H5N1 (Influenza A virus A/common magpie/Hong Kong/5052/07 (H5N1)); test: trimeric HA microarray, transfection set 3
[23] = target: recombinant homotrimeric HA, A/Indonesia/5/05 H5N1 (Influenza A virus A/Indonesia/5/05 (H5N1)); test: trimeric HA microarray, transfection set 3
[24] = target: T8, recombinant homotrimeric HA, …; test: trimeric HA microarray, transfection set 3
[25] = target: T1, recombinant homotrimeric HA, …; test: trimeric HA microarray, transfection set 2
[26] = target: T2, recombinant homotrimeric HA, A/Solomon …; test: trimeric HA microarray, transfection set 2
[27] = target: T9, recombinant homotrimeric HA, A/northern …; test: trimeric HA microarray, transfection set 2
[28] = target: T3, recombinant homotrimeric HA, A/South …; test: trimeric HA microarray, transfection set 2
[29] = target: T4, recombinant homotrimeric HA, A/Hong …; test: trimeric HA microarray, transfection set 2
[30] = target: T10, recombinant homotrimeric HA, …; test: trimeric HA microarray, transfection set 2
[31] = target: T11, recombinant homotrimeric HA, …; test: trimeric HA microarray, transfection set 2
[32] = target: T12, recombinant homotrimeric HA, A/common …; test: trimeric HA microarray, transfection set 2
[33] = target: T5, recombinant homotrimeric HA, …; test: trimeric HA microarray, transfection set 2
[34] = target: T6, recombinant homotrimeric HA, …; test: trimeric HA microarray, transfection set 2
[35] = target: T7, recombinant homotrimeric HA, …; test: trimeric HA microarray, transfection set 2
[36] = target: T8, recombinant homotrimeric HA, …; test: trimeric HA microarray, transfection set 2
[37] = target: recombinant soluble homotrimeric HA of A/Wisconsin/67/05 (H3N2) (Influenza A virus A/Wisconsin/67/05 (H3N2)); test: microarray, BCC supernatant IgG, trimeric HA
[38] = target: recombinant homotrimeric HA, A/Netherlands/219/03 H7N7 (Influenza A virus A/Netherlands/219/03 (H7N7)); test: trimeric HA microarray, transfection set 3

B1: TCN-529 (5297_H01) (antibody, V domains shown)
VH: QITLRESGPTLVKPTQTLTLTCTFSGFSLSTNGVNVGWIRQPPGKALEWLALIYWDDDKRYSPSLKRRLTITKDTSKNQVVLTLTNMDPVDTATYYCAHRPDFYGDFEYWGPGTLVTVSS
VL: QSALTQPASVSGSPGQSITISCTGSSSDIGGYNYVSWYQQHPGKAPKLMIYDVNNRPSGVSNRFSGSKSGNTASLTISGLQTDDEADYYCGSYTGSPHYVFGTGTKVTVL
Trimeric HA Binding RLU [1]: 45 RLU
Trimeric HA Binding RLU [2]: 43 RLU
Trimeric HA Binding RLU [3]: 158 RLU
Trimeric HA Binding RLU [4]: 46 RLU
Trimeric HA Binding RLU [5]: 2940 RLU
Trimeric HA Binding RLU [6]: 48 RLU
Trimeric HA Binding RLU [7]: 33 RLU
Trimeric HA Binding RLU [8]: 45 RLU
Trimeric HA Binding: RLU [9]: 179 RLU
Trimeric HA Binding: RLU [10]: 771 RLU

B2: TCN-547 (5092_F11) (antibody, V domains shown)
VH: QVQLQESGPGLVKPSQTLSLTCTVSGDSISSVDHYWSWIRQHPVKGLEWIGFMYYSASTYYNPSLKSRVTISTDTSKNQFSLRLSSVTAADTAVYYCARGTCAGDCSLHYYYYGLDVWGQGRTVTVSS
VL: DIQMTQSPSSLSASVGDRVTITCRASQSISSYLNWYQHKPGKAPKVLMYAVSILQSGVPSRFSGSGSGADFTLTISSLQPEDFATYYCQQSYSSPLTFGGGTKVEIK
Trimeric HA Binding RLU [11]: 1350 RLU
Trimeric HA Binding RLU [12]: 1080 RLU
Trimeric HA Binding RLU [13]: 6970 RLU
Trimeric HA Binding RLU [14]: 1470 RLU
Trimeric HA Binding: RLU [15]: 170 RLU
Trimeric HA Binding: RLU [16]: 1000 RLU
Trimeric HA Binding: RLU [17]: 198 RLU

B3: TCN-530 (5248_H10a) (antibody, V domains shown)
VH: QVQLVQSGAEVRKPGSSVKVSCKASGGPFMSYAIGWVRQAPGQGLEWMGGINPVFGRPHYAQKFQGRVTIATDDSTKTSYMELSSLTSEDTGMYYCASRYSRSSPGTFESWGQGTLVTVSS
VL: EIVMTQFPATLSVSPGERVTLSCRASQSVSNNLAWYQQKPGQPPRLLIYDASTRATGVPAKFSGTGSGTEFTLSISSLQSEDFAVYYCQQYHNWPPSYSFGLGTKLEIK
Trimeric HA Binding RLU [1]: 5170 RLU
Trimeric HA Binding RLU [2]: 13800 RLU
Trimeric HA Binding RLU [18]: 23500 RLU
Trimeric HA Binding RLU [3]: 17200 RLU
Trimeric HA Binding RLU [4]: 10200 RLU
Trimeric HA Binding RLU [19]: 44 RLU
Trimeric HA Binding RLU [20]: 25200 RLU
Trimeric HA Binding RLU [21]: 25500 RLU
Trimeric HA Binding RLU [22]: 5580 RLU
Trimeric HA Binding RLU [5]: 3050 RLU
Trimeric HA Binding RLU [7]: 18000 RLU
Trimeric HA Binding RLU [8]: 123 RLU
Trimeric HA Binding RLU [23]: 25500 RLU
Trimeric HA Binding RLU [24]: 21200 RLU

B4: TCN-522 (3212_I12) (antibody, V domains shown)
VH: QVQLQQWGAGLLKPSETLSLTCTVSGGSLTDYSWNWIRQPPGKGLEWIGDTLHNGYTNYNPSLRGRVSISIDTSKNQVSLRLTSVTAADTALYYCARGSGGYGGFDYFGKLRTWDFWGQGTLVTVSS
VL: DIQLTQSPSSLSASVGDRVTITCRASQGIRNDLGWYQQKPGNAPKRLIFGASSLQSGVPSRFSGSGSGTEFTLTISSLQPEDFATYYCLQHNSYPYTFGQGTKLEIK
Trimeric HA Binding RLU [25]: 11900 RLU
Trimeric HA Binding RLU [26]: 17300 RLU
Trimeric HA Binding RLU [27]: 54400 RLU
Trimeric HA Binding RLU [28]: 39600 RLU
Trimeric HA Binding RLU [29]: 11800 RLU
Trimeric HA Binding RLU [30]: 48200 RLU
Trimeric HA Binding RLU [31]: 55400 RLU
Trimeric HA Binding RLU [32]: 21400 RLU
Trimeric HA Binding RLU [33]: 3350 RLU
Trimeric HA Binding RLU [34]: 49300 RLU
Trimeric HA Binding RLU [35]: 1050 RLU
Trimeric HA Binding RLU [36]: 37500 RLU
Trimeric HA Binding: RLU [37]: 302 RLU

B5: TCN-532 (5262_H18) (antibody, V domains shown)
VH: QVQLQESGPGLVKPSETLSLTCTVSGGSVSSETYYWSWIRQPPGKGLEWIGYIYYIGNTDYRPSLKSRVTISLDTSKNQFSLKLSSVTAADTAVYYCARGAYYDSSGYPAFYIWGQGTMVTVSS
VL: QSVLTQPPSVSGAPGQRVTISCTGSSSNIGSDYDVHWYKQLPGTAPKLLIFGNSNRPSGVPDRFSGSKSGTSASLAITGLQAEDEADYYCQSYDSSLSGFHVFGSGTKVTVL
Trimeric HA Binding RLU [1]: 441 RLU
Trimeric HA Binding RLU [2]: 59 RLU
Trimeric HA Binding RLU [18]: 78 RLU
Trimeric HA Binding RLU [3]: 311 RLU
Trimeric HA Binding RLU [4]: 48 RLU
Trimeric HA Binding RLU [38]: 42 RLU
Trimeric HA Binding RLU [5]: 9970 RLU
Trimeric HA Binding RLU [7]: 29 RLU
Trimeric HA Binding RLU [8]: 29 RLU
